The target in this assay is mesothelin on K562.meso cells (erythroblast cell line stably expressing mesothelin). In words: cell-based or functional assay.

On to “SS1 chimeric antigen receptor (mesothelin specific) on transduced T cells”, for which the CAR-T cell cytolysis at an Effector:target cell ratio of 10:1 (Cr51 release), K562meso was 95%.

The values above are taken from patent US20170291954A1.
